Substitutions are numbered along the chain they refer to. In names and notes the source's numbering stands.
Key:
FtsZ(K380A) (E. coli) = FtsZ(K380A) (E. coli) (UniProt P0A9A6)
FtsZ(Δ380-383) (E. coli) = FtsZ(Δ380-383) (E. coli) (UniProt P0A9A6)
FtsZ(R379E) (E. coli) = FtsZ(R379E) (E. coli) (UniProt P0A9A6)
FtsZ(Δ375-383) (E. coli) = FtsZ(Δ375-383) (E. coli) (UniProt P0A9A6)
[1] = target: E. coli FtsZ (wild type) (E. coli) (UniProt P0A9A6)
FtsZ(P375G) (E. coli) = FtsZ(P375G) (E. coli) (UniProt P0A9A6)
FtsZ(F377A) (E. coli) = FtsZ(F377A) (E. coli) (UniProt P0A9A6)
[2] = target: E. coli FtsZ (wild type) (E. coli) (UniProt P0A9A6); remark: listed apart in the source
[3] = target: the molecule itself; assay: 90° light scattering; 8 µM FtsZ wild type or mutant in assembly buffer, polymerisation after addition of 1 mM GTP; self-association into polymers
ClpX(E185Q) = target: T1, ClpX(E185Q) (E. coli, UniProt P0A6H1 1-424, E185Q); assay: co-sedimentation; 250 pmol FtsZ wild type or mutant polymerised with 2 mM GTP in assembly buffer (50 mM MES pH 6.5, 50 mM KCl, 10 mM MgCl2) with acetate kinase and acetyl phosphate; 1.5, 5.0 or 12.5 pmol ClpX(E185Q) and 4 mM ATP added, 25 µl, 10 min; 129,000×g 30 min; SDS-PAGE, Coomassie, densitometry; background without GTP subtracted; conditions: both partners purified
T1 construct: ClpX, Escherichia coli, ATP hydrolysis defective mutant E185Q; Concentrations are reported for ClpX hexamers; also called ATP hydrolysis defective mutant of ClpX

[4] = target: the molecule itself; assay: negative-stain electron microscopy; FtsZ mutant proteins (5 µM) incubated with GTP, negative staining with uranyl acetate; filaments

Q: What does the source list for “E. coli ClpX (wild type) (from UniProt P0A6H1 1-424) (enzyme)”?
A: reduction of the rate of degradation by ClpXP against wild type FtsZ, in both the presence and absence of GTP (FtsZ(K380A) (E. coli)): 55%; reduction of the rate of degradation by ClpXP against wild type FtsZ, in the absence of GTP (FtsZ(Δ380-383) (E. coli)): 65%; reduction of the rate of degradation by ClpXP against wild type FtsZ, in the presence of GTP (FtsZ(Δ380-383) (E. coli)): 75%; reduction of the rate of degradation by ClpXP against wild type FtsZ, in both the presence and absence of GTP (FtsZ(R379E) (E. coli)): 75%; reduction of the rate of degradation by ClpXP against wild type FtsZ, in the absence of GTP (FtsZ(Δ375-383) (E. coli)): 65%; reduction of the rate of degradation by ClpXP against wild type FtsZ, in the presence of GTP (FtsZ(Δ375-383) (E. coli)): 75%; rate of degradation of fluorescent FtsZ (10 µM) by ClpXP (1 µM) in the absence of GTP, ultrafiltration assay [1]: 0.11 min⁻¹; rate of degradation of fluorescent FtsZ (10 µM) by ClpXP (1 µM) in the presence of GTP, ultrafiltration assay [1]: 0.2 min⁻¹; reduction of the rate of degradation by ClpXP against wild type FtsZ, in the presence of GTP (no similar reduction without GTP) (FtsZ(P375G) (E. coli)): 50%; reduction of the rate of degradation by ClpXP against wild type FtsZ, in the presence of GTP (no similar reduction without GTP) (FtsZ(F377A) (E. coli)): 50%

B1: MinC (natural protein)
chain: MSNTPIELKGSSFTLSVVHLHEAEPKVIHQALEDKIAQAPAFLKHAPVVLNVSALEDPVNWSAMHKAVSATGLRVIGVSGCKDAQLKAEIEKMGLPILTEGKEKAPRPAPTPQAPAQNTTPVTKTRLIDTPVRSGQRIYAPQCDLIVTSHVSAGAELIADGNIHVYGMMRGRALAGASGDRETQIFCTNLMAELVSIAGEYWLSDQIPAEFYGKAARLQLVENALTVQPLN
Q: Which inhibition of degradation of fluorescent FtsZ (5 µM, with GTP) by ClpXP (0.5 µM) at 2, 5, 10 and 20 µM MinC; the pair that is blocked: FtsZ with ClpX (ClpXP) [2] does the source give for B1 here?
A: 80%

B2: E. coli FtsZ (wild type) (natural protein, UniProt P0A9A6 1-383, looked up)
chain: MFEPMELTNDAVIKVIGVGGGGGNAVEHMVRERIEGVEFFAVNTDAQALRKTAVGQTIQIGSGITKGLGAGANPEVGRNAADEDRDALRAALEGADMVFIAAGMGGGTGTGAAPVVAEVAKDLGILTVAVVTKPFNFEGKKRMAFAEQGITELSKHVDSLITIPNDKLLKVLGRGISLLDAFGAANDVLKGAVQGIAELITRPGLMNVDFADVRTVMSEMGYAMMGSGVASGEDRAEEAAEMAISSPLLEDIDLSGARGVLVNITAGFDLRLDEFETVGNTIRAFASDNATVVIGTSLDPDMNDELRVTVVATGIGMDKRPEITLVTNKQVQQPVMDRYQQHGMAPLTQEQKPVAKVVNDNAPQTAKEPDYLDIPAFLRKQAD
notes: FtsZ, Escherichia coli, wild type; Unlabelled in the co-sedimentation assay; labelled with Alexa fluor succinimidyl ester (0.5-5.0 mol/mol) in the degradation reactions; Assembles into polymers with GTP; also called wild type FtsZ
Q: Does B2 bind [3]?
A: binds

Q: Does B2 bind (ClpX(E185Q))?
A: binds

B3: FtsZ(356AAA) (natural protein, E. coli, UniProt P0A9A6 1-383, looked up)
chain: B2 chain with K356A, V357A, V358A
notes: source: E. coli BL21 (λDE3), purified like wild type FtsZ
Q: What does the source list for B3?
A: binding result [3]: binds; binding result (ClpX(E185Q)): binds

B4: FtsZ(352AAA, Δ375-383) (domain or fragment, E. coli, UniProt P0A9A6 1-374, looked up)
chain: MFEPMELTNDAVIKVIGVGGGGGNAVEHMVRERIEGVEFFAVNTDAQALRKTAVGQTIQIGSGITKGLGAGANPEVGRNAADEDRDALRAALEGADMVFIAAGMGGGTGTGAAPVVAEVAKDLGILTVAVVTKPFNFEGKKRMAFAEQGITELSKHVDSLITIPNDKLLKVLGRGISLLDAFGAANDVLKGAVQGIAELITRPGLMNVDFADVRTVMSEMGYAMMGSGVASGEDRAEEAAEMAISSPLLEDIDLSGARGVLVNITAGFDLRLDEFETVGNTIRAFASDNATVVIGTSLDPDMNDELRVTVVATGIGMDKRPEITLVTNKQVQQPVMDRYQQHGMAPLTQEQAAAAKVVNDNAPQTAKEPDYLDI
notes: also called double mutant; source: E. coli BL21 (λDE3), purified like wild type FtsZ
Q: Does B4 bind [3]?
A: binds

Q: Does B4 bind (ClpX(E185Q))?
A: binds

B5: FtsZ(R379E) (natural protein, E. coli, UniProt P0A9A6 1-383, looked up)
chain: B2 chain with R379E
notes: FtsZ, Escherichia coli, substitution R379E; source: E. coli BL21 (λDE3), purified like wild type FtsZ
Q: Does B5 bind [4]?
A: binds

B6: FtsZ(352AAA) (natural protein, E. coli, UniProt P0A9A6 1-383, looked up)
chain: B2 chain with K352A, P353A, V354A
notes: as for B3
Q: Does B6 bind [4]?
A: binds

Q: Does B6 bind (ClpX(E185Q))?
A: binds

B7: FtsZ(Δ375-383) (domain or fragment, E. coli, UniProt P0A9A6 1-374, looked up)
chain: B4 chain with A352K, A353P, A354V
notes: Alexa-labelled in the degradation reactions, unlabelled in co-sedimentation; also called deletion mutant lacking the C-terminal nine amino acids; source: E. coli BL21 (λDE3), purified like wild type FtsZ
Q: Does B7 bind (ClpX(E185Q))?
A: binds

B8: FtsZ(K380A) (natural protein, E. coli, UniProt P0A9A6 1-383, looked up)
chain: B2 chain with K380A
notes: FtsZ, Escherichia coli, substitution K380A; source: E. coli BL21 (λDE3), purified like wild type FtsZ
Q: Does B8 bind [3]?
A: binds

B9: FtsZ(Δ380-383) (domain or fragment, E. coli, UniProt P0A9A6 1-379, looked up)
chain: MFEPMELTNDAVIKVIGVGGGGGNAVEHMVRERIEGVEFFAVNTDAQALRKTAVGQTIQIGSGITKGLGAGANPEVGRNAADEDRDALRAALEGADMVFIAAGMGGGTGTGAAPVVAEVAKDLGILTVAVVTKPFNFEGKKRMAFAEQGITELSKHVDSLITIPNDKLLKVLGRGISLLDAFGAANDVLKGAVQGIAELITRPGLMNVDFADVRTVMSEMGYAMMGSGVASGEDRAEEAAEMAISSPLLEDIDLSGARGVLVNITAGFDLRLDEFETVGNTIRAFASDNATVVIGTSLDPDMNDELRVTVVATGIGMDKRPEITLVTNKQVQQPVMDRYQQHGMAPLTQEQKPVAKVVNDNAPQTAKEPDYLDIPAFLR
notes: also called deletion mutant that lacks the C-terminal four amino acid variable region; source: E. coli BL21 (λDE3), purified like wild type FtsZ
Q: Does B9 bind [3]?
A: binds

Source: publication PMC3983244, “Location of Dual Sites in E. coli FtsZ Important for Degradation by ClpXP; One at the C-Terminus and One in the Disordered Linker” (PLoS ONE, 2014)
